# Laboratory results: PMC2121072 (The Journal of Cell Biology, 1996)
# Columns and labels:
# GST-hDlg fusion protein = GST-hDlg fusion protein (Homo sapiens, UniProt Q12959); experiment: Binding of ezrin / PTP-H1 to GST-hDlg; settings: PTP-H1 expressed in baculovirus system; data not shown
# PDZ 1+2 module = experiment: Blot overlay assay; type: binding, human; settings: data not shown
# [1] = system: three PDZ domains of hDlg; settings: ref Lue et al., 1994; cited from earlier work
# [2] = system: protease-resistant module of hDlg containing PDZ domains 1 and 2; settings: ref Lue et al., 1995 [Abstract #1557]; cited from earlier work
Molecule,interaction with GST-hDlg (GST-hDlg fusion protein),binding of protein 4.1 to PDZ 1+2 module (PDZ 1+2 module),affinity for three PDZ domains vs 4.1B (I3) domain [1],binding to protease-resistant module [2]
PTP-H1: tyrosine phosphatase expressed in the baculovirus expression system (protein) MTSRLRALGGRINNIRTSELPKEKTRSEVICSIHFLDGVVQTFKVTKQDTGQVLLDMVHNHLGVTEKEYFGLQHDDDSVDSPRWLEASKAIRKQLKGGFPCTLHFRVRFFIPDPNTLQQEQTRHLYFLQLKMDICEGRLTCPLNSAVVLASYAVQSHFGDYNSSIHHPGYLSDSHFIPDQNEDFLTKVESLHEQHSGLKQSEAESCYINIARTLDFYGVELHSGRDLHNLDLMIGIASAGVAVYRKYICTSFYPWVNILKISFKRKKFFIHQRQKQAESREHIVAFNMLNYRSCKNLWKSCVEHHTFFQAKKLLPQEKNVLSQYWTMGSRNTKKSVNNQYCKKVIGGMVWNPAMRRSLSVEHLETKSLPSRSPPITPNWRSPRLRHEIRKPRHSSADNLANEMTYITETEDVFYTYKGSLAPQDSDSEVSQNRSPHQESLSENNPAQSYLTQKSSSSVSPSSNAPGSCSPDGVDQQLLDDFHRVTKGGSTEDASQYYCDKNDNGDSYLVLIRITPDEDGKFGFNLKGGVDQKMPLVVSRINPESPADTCIPKLNEGDQIVLINGRDISEHTHDQVVMFIKASRESHSRELALVIRRRAVRSFADFKSEDELNQLFPEAIFPMCPEGGDTLEGSMAQLKKGLESGTVLIQFEQLYRKKPGLAITFAKLPQNLDKNRYKDVLPYDTTRVLLQGNEDYINASYVNMEIPAANLVNKYIATQGPLPHTCAQFWQVVWDQKLSLIVMLTTLTERGRTKCHQYWPDPPDVMNHGGFHIQCQSEDCTIAYVSREMLVTNTQTGEEHTVTHLQYVAWPDHGVPDDSSDFLEFVNYVRSLRVDSEPVLVHCSAGIGRTGVLVTMETAMCLTERNLPIYPLDIVRKMRDQRAMMVQTSSQYKFVCEAILRVYEEGLVQMLDPS,no interaction,–,–,–
"protein 4.1: native protein 4.1 isolated from human RBCs (protein, UniProt P11171 1-864, looked up) Protein 4.1: MTTEKSLVTEAENSQHQQKEEGEEAINSGQQEPQQEESCQTAAEGDNWCEQKLKASNGDTPTHEDLTKNKERTSESRGLSRLFSSFLKRPKSQVSEEEGKEVESDKEKGEGGQKEIEFGTSLDEEIILKAPIAAPEPELKTDPSLDLHSLSSAETQPAQEELREDPDFEIKEGEGLEECSKIEVKEESPQSKAETELKASQKPIRKHRNMHCKVSLLDDTVYECVVEKHAKGQDLLKRVCEHLNLLEEDYFGLAIWDNATSKTWLDSAKEIKKQVRGVPWNFTFNVKFYPPDPAQLTEDITRYYLCLQLRQDIVAGRLPCSFATLALLGSYTIQSELGDYDPELHGVDYVSDFKLAPNQTKELEEKVMELHKSYRSMTPAQADLEFLENAKKLSMYGVDLHKAKDLEGVDIILGVCSSGLLVYKDKLRINRFPWPKVLKISYKRSSFFIKIRPGEQEQYESTIGFKLPSYRAAKKLWKVCVEHHTFFRLTSTDTIPKSKFLALGSKFRYSGRTQAQTRQASALIDRPAPHFERTASKRASRSLDGAAAVDSADRSPRPTSAPAITQGQVAEGGVLDASAKKTVVPKAQKETVKAEVKKEDEPPEQAEPEPTEAWKVEKTHIEVTVPTSNGDQTQKLAEKTEDLIRMRKKKRERLDGENIYIRHSNLMLEDLDKSQEEIKKHHASISELKKNFMESVPEPRPSEWDKRLSTHSPFRTLNINGQIPTGEGPPLVKTQTVTISDNANAVKSEIPTKDVPIVHTETKTITYEAAQTDDNSGDLDPGVLLTAQTITSETPSSTTTTQITKTVKGGISETRIEKRIVITGDADIDHDQVLVQAIKEAKEQHPDMSVTKVVVHQETEIADE",–,no binding,significantly lower affinity,binds
